Assay results: the supplement of paper PMC10724198
± gives the standard deviation of the averaged measurements.

How the values were obtained:
[1] = test system: Saccharomyces cerevisiae; assay: protein stability index of tFT-peptide fusion (C-terminal peptide) (PSI (0-1 scale)); higher = more stable (slower turnover)
Procedure: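 MPS profiling in S. cerevisiae of the tFT-X12 degron library: putative degron peptides plus stable controls, 12 aa, fused to the C-terminus of a sfGFP-mCherry timer. Cells are FACS-sorted into 8 mCherry/sfGFP bins and deep-sequenced. PSI runs from 0 (unstable) to 1 (stable). Backgrounds are wild type, das1Δ and doa10Δ at 30 °C, and wild type, das1Δ, cdc34-1 and cdc53-1 at 37 °C; 2-3 technical replicates each.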

[2] = test system: Saccharomyces cerevisiae; assay: as above; settings: genetic background: wild type; temperature: 30 C
[3] = genetic background: cdc34-1, temperature: 37 C
[4] = genetic background: cdc53-1, temperature: 37 C
[5] = genetic background: das1 deletion, temperature: 30 C
[6] = genetic background: das1 deletion, temperature: 37 C
[7] = genetic background: doa10 deletion, temperature: 30 C
[8] = genetic background: wild type, temperature: 30 C
[9] = genetic background: wild type, temperature: 37 C
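Also: PSI is a weighted mean of sequencing reads over stability bins, variants kept only with over 10 reads, mCherry proximal and sfGFP distal, peptide attached via GGGS linker.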

Sequence	protein stability index [1, 3]	protein stability index [1, 4]	protein stability index [1, 5]	protein stability index [1, 6]	protein stability index [1, 7]	protein stability index [1, 8]	protein stability index [1, 9]	protein stability index [2]
LSQPGWFKCCLS	0.653 ± 0.014	0.737 ± 0.05	0.662 ± 0.029	0.7677 ± 0.00079	0.308 ± 0.023	0.326 ± 0.023	0.463 ± 0.029	0.42 ± 0.013
LSRFRYFVLTSL	0.531 ± 0.026	0.6913 ± 0.0028	0.608 ± 0.018	0.698 ± 0.033	0.146 ± 0.015	0.171 ± 0.019	0.263 ± 0.037	0.261 ± 0.041
LSVSEILAVKCG	0.559 ± 0.034	0.584 ± 0.0073	0.429 ± 0.034	0.592 ± 0.026	0.363 ± 0.0039	0.411 ± 0.026	0.5632 ± 0.0052	0.489 ± 0.012
LTACRYVCFLLF	0.575 ± 0.019	0.644 ± 0.018	0.561 ± 0.017	0.676 ± 0.037	0.239 ± 0.0088	0.261 ± 0.032	0.424 ± 0.012	0.261 ± 0.041
LTFRFGVNPYVF	0.631 ± 0.034	0.748 ± 0.013	0.634 ± 0.019	0.752 ± 0.024	0.132 ± 0.0056	0.14 ± 0.023	0.283 ± 0.015	0.323 ± 0.011
LVLELYRFARFG	0.636 ± 0.03	0.7337 ± 0.0046	0.643 ± 0.0069	0.742 ± 0.015	0.2704 ± 0.00045	0.276 ± 0.043	0.532 ± 0.038	0.3197 ± 0.0012
LVLFVVGGWVSL	0.35 ± 0.023	0.474 ± 0.082	0.316 ± 0.023	0.551 ± 0.014	0.279 ± 0.0085	0.311 ± 0.029	0.54 ± 0.076	0.445 ± 0.043
LVSLCYAYPRYC	0.646 ± 0.016	0.685 ± 0.008	0.532 ± 0.016	0.7025 ± 0.0052	0.2577 ± 0.00032	0.279 ± 0.031	0.5826 ± 0.0029	0.387 ± 0.025
LVVAVLKIIMSS	0.13 ± 0.023	0.201 ± 0.00098	0.2 ± 0.033	0.349 ± 0.013	0.0697 ± 0.012	0.0742 ± 0.023	0.0596 ± 0.0031	0.124 ± 0.027
LWFLDYVFICFL	0.335 ± 0.017	0.347 ± 0.025	0.33 ± 0.034	0.452 ± 0.012	0.3673 ± 0.0034	0.299 ± 0.018	0.399 ± 0.011	0.382 ± 0.022
LWFRCVRMQACR	0.47 ± 0.031	0.51569 ± 0.00022	0.411 ± 0.019	0.5101 ± 0.0028	0.42 ± 0.025	0.41 ± 0.015	0.492 ± 0.0094	0.507 ± 0.032
LWLFIVCWVGCV	0.234 ± 0.017	0.301 ± 0.044	0.201 ± 0.019	0.339 ± 0.014	0.1847 ± 0.00077	0.177 ± 0.025	0.31 ± 0.0052	0.247 ± 0.033
LWLVSLLVLWLT	0.332 ± 0.035	0.375 ± 0.033	0.291 ± 0.033	0.439 ± 0.011	0.239 ± 0.0059	0.256 ± 0.02	0.383 ± 0.013	0.316 ± 0.018
LWNFYELVVYAM	0.046 ± 0.016	0.0695 ± 0.046	0.159 ± 0.035	0.153 ± 0.04	0.103 ± 0.021	0.121 ± 0.019	0.114 ± 0.0054	0.212 ± 0.018
LYLFKVLFFRVF	0.122 ± 0.047	0.173 ± 0.026	0.286 ± 0.045	0.458 ± 0.06	0.0857 ± 0.0067	0.0584 ± 0.016	0.102 ± 0.015	0.104 ± 0.048
